Numbering of substitutions follows the chain as printed. Numbers in names are those of the source.
B1: GST fusion with the fragment from amino acid 819 to 939 of the Ste20p^S879A/S880A/P883A mutant (protein, not shown: a dimerising Fc or GST; large carriers; small tags and cut ends)
chain: PLRALYLIATNGTPKLKEPENLSSSLKKFLDWCLCVEPEDRASATELLHDEYITEIAEANAALAALVKLARLKKVAENMDADEDNDDDNDNEHINKTNNCDDNNDSKETVNLDVTEDDKQK
B2: HA-Ste4p (other, Saccharomyces cerevisiae (yeast), UniProt P18851 1-423, looked up, not shown: small tags and cut ends)
chain: MAAHQMDSITYSNNVTQQYIQPQSLQDISAVEDEIQNKIEAARQESKQLHAQINKAKHKIQDASLFQMANKVTSLTKNKINLKPNIVLKGHNNKISDFRWSRDSKRILSASQDGFMLIWDSASGLKQNAIPLDSQWVLSCAISPSSTLVASAGLNNNCTIYRVSKENRVAQNVASIFKGHTCYISDIEFTDNAHILTASGDMTCALWDIPKAKRVREYSDHLGDVLALAIPEEPNSENSSNTFASCGSDGYTYIWDSRSPSAVQSFYVNDSDINALRFFKDGMSIVAGSDNGAINMYDLRSDCSIATFSLFRGYEERTPTPTYMAANMEYNTAQSPQTLKSTSSSYLDNQGVVSLDFSASGRLMYSCYTDIGCVVWDVLKGEIVGKLEGHGGRVTGVRSSPDGLAVCTGSWDSTMKIWSPGYQ
B3: Ste4p K55E mutant (other, Saccharomyces cerevisiae (yeast), UniProt P18851 1-423, looked up)
chain: B2 chain with K55E
modifications: 35S-labelled methionine
notes: In vitro-translated, 35S-labelled; also called STE4^K55E; 35S-Ste4p K55E
B4: Ste4p D62N mutant (other, Saccharomyces cerevisiae (yeast), UniProt P18851 1-423, looked up)
chain: B2 chain with D62N
modifications: 35S-labelled methionine
notes: In vitro-translated, 35S-labelled; also called STE4^D62N; 35S-Ste4p D62N
B5: Ste20p^495-888 (protein)
chain: MNSAANVSPLKQTHAPTTPNRTSPNRSSISRNATLKKEEQPLPPIPPTKSKTSPIISTAHTPQQVAQSPKAPAQETVTTPTSKPAQARSLSKELNEKKREERERRKKQLYAKLNEICSDGDPSTKYANLVKIGQGASGGVYTAYEIGTNVSVAIKQMNLEKQPKKELIINEILVMKGSKHPNIVNFIDSYVLKGDLWVIMEYMEGGSLTDVVTHCILTEGQIGAVCRETLSGLEFLHSKGVLHRDIKSDNILLSMEGDIKLTDFGFCAQINELNLKRTTMVGTPYWMAPEVVSRKEYGPKVDIWSLGIMIIEMIEGEPPYLNETPLRALYLIATNGTPKLKEPENLSSSLKKFLDWCLCVEPEDRASATELLHDEYITEIAEANSSLAPLVKLA
B6: Ste20p^S879A/S880A/P883A (protein)
chain: MSNDPSAVSELPDKDSLDNGISNDNERAMGGNGDGGDGLRLPRTTGTLNVNALQKGTNAAHEAGGYKSMDPAKNAETTNDDDNNVVSLDDPIQFTRVSSSSVISGMSSSMSPHSNIDETKSLEAVTPNINTSNITPDHSADNTFSTINASESDHQFNDTLLSKLSLTDSTETIENNATVKHQQPVASSTVNSNKSSTDIRRATPVSTPVISKPSMTTTPRQINSASHSLSNPKHKQHKPKVKPSKPEAKSKPVSVKKSFPSKNPLKNSSPPKKQTEKSYYSSSSKKRKSGSNSGTLRMKDVFTSFVQNIKRNSQDDKRASSSSNNSSSSSITTALRISTPYNAKHIHHVGVDSKTGEYTGLPEEWEKLLTSSGISKREQQQNMQAVMDIVKFYQDVTETNGEDKMFKTFNTTTGLPGSPQVSTPPANSFNKFPPSTSDSHNYGSRTGTPMSNHVMSPTLNTDSSSANGKFIPSRPAPKPPSSASASAPIIKSPVMNSAANVSPLKQTHAPTTPNRTSPNRSSISRNATLKKEEQPLPPIPPTKSKTSPIISTAHTPQQVAQSPKAPAQETVTTPTSKPAQARSLSKELNEKKREERERRKKQLYAKLNEICSDGDPSTKYANLVKIGQGASGGVYTAYEIGTNVSVAIKQMNLEKQPKKELIINEILVMKGSKHPNIVNFIDSYVLKGDLWVIMEYMEGGSLTDVVTHCILTEGQIGAVCRETLSGLEFLHSKGVLHRDIKSDNILLSMEGDIKLTDFGFCAQINELNLKRTTMVGTPYWMAPEVVSRKEYGPKVDIWSLGIMIIEMIEGEPPYLNETPLRALYLIATNGTPKLKEPENLSSSLKKFLDWCLCVEPEDRASATELLHDEYITEIAEANAALAALVKLARLKKVAENMDADEDNDDDNDNEHINKTNNCDDNNDSKETVNLDVTEDDKQK
B7: Ste20p^CLA4 (protein)
chain: B6 chain with A879K, A880D, A882T, A883S, V885L, K886E, L887W

Key:
[1] = biological target: T1, Ste4p (Saccharomyces cerevisiae (yeast)) (UniProt P18851); test: GST pull-down of in vitro-translated 35S-Ste4p with HA-Ste18p present; normalized against wild-type Ste20p 819-939
T1 sequence (35S-labelled methionine in the in vitro-translated form, looked up): B2 chain

[2] = biological target: T2, Ste20p (Saccharomyces cerevisiae (yeast), UniProt Q03497 1-939); test: co-immunoprecipitation from yeast extracts, anti-HA IP, Western blot
T2 construct: Full length Ste20p in yeast cells (endogenous, or from pDH166 / pSTE20-5); also called STE20^WT; wild-type Ste20p
T2 sequence: B6 chain with A879S, A880S, A883P
Protocol: Relative amounts of Ste20p and HA-Ste4p were determined in Western blots (see example in upper and middle panels) and quantified densitometrically (mean values ±SD, n=3) (lower panel). (B) Association of Ste5p with HA-Ste4p expressed from the STE4 promoter in cells deleted for STE4 . HA-Ste4p immunoprecipitates from exponentially growing (−) and pheromone-treated (90 minutes) (+) yeast cells were analyzed with antibodies to Ste5p (upper panel) or HA-Ste4p (lower panel). (C) Overexpression of Ste4p leads to binding to Ste20p. HA-Ste4p was overexpressed from the GAL1 promoter in cells deleted for STE20 (lane 1) or STE4 (lanes 2 and 3). […] Immunoprecipitates obtained with antibodies to Ste20p (lanes 1 and 2) or the HA-epitope (lanes 3 and 4) were analyzed for the presence of Ste20p (upper panel) and HA-Ste4p (lower panel). […] HA-Ste4p (lanes 1 and 2) and Ste20p (lanes 3 and 4) immunoprecipitates were analyzed for the presence of Ste20p (upper panel) and HA-Ste4p (lower panel) by Western blot analyses. […]
For the detection of Ste20p fragments, a secondary sheep antibody specific to rabbit immunoglobulin light chains and a tertiary HRP-conjugated donkey antibody to sheep IgG were obtained from The Binding Site, Lim. […] For quantitation, immunoblots were evaluated by integrating densitometry using an Epson ES 1200-C densitometer and the NIH Image 1.59 software.

[3] = biological target: T3, GST-Ste20p FL (Saccharomyces cerevisiae (yeast), UniProt Q03497 1-939); test: GST pull-down of in vitro-translated 35S-Ste4p mutant, with HA-Ste18p present
T3 construct: Purified on glutathione-Sepharose beads; also called GST fusion with full length Ste20p; not shown: glutathione S-transferase (GST), amino-terminal fusion partner
T3 sequence: B6 chain with A879S, A880S, A883P
From the text: Interaction of Ste4p mutants with Ste20p and Ste5p. […] Relative amounts of the GST fusion proteins and of ³⁵S-Ste4p were quantified by densitometric evaluation of Western blots and autoradiographs, respectively. Data are given as percentage of binding of wild-type ³⁵S-Ste4p (mean values ±SD, n≧3).
The beads were then washed three times with PBS, separated by SDS-PAGE and analysed by autoradiography of Western blots. Results were confirmed in at least three independent experiments. Immunodetection and evaluation of immunoblots and radiographs were then performed as described above. Data obtained for ³⁵S-Ste4p were corrected for relative concentrations of the respective GST fusion proteins.

[4] = biological target: T4, Ste4p, P18851
T4 chain: B2 chain

Binder | G1 arrest [4] | Mating efficiencies (%) [4] [%] | Shmoo formation [4] | further results
B1 |  |  |  | Binding to 35S-Ste4p (%) [1]: 15.2%
B2 |  |  |  | binding result [2]: binds
B3 |  |  |  | binding result [3]: no binding
B4 |  |  |  | binding result [3]: no binding
B5 | + | 75.2 | + | FUS1::lacZ expression, Basal [4]: 1.6; FUS1::lacZ expression, Induced [4]: 148
B6 | - | 0.039 | - | FUS1::lacZ expression [4]: 14
B7 | - | 0.016 | - | FUS1::lacZ expression [4]: 11

From US20020106690A1 (published 2002)
